Legend:
[1] = target: alpha-fetoprotein (AFP) receptor (AFPR) (human); test: AF-647 labeled rhAFP incubated with OVCAR-3 cells at 37 C for 0.5, 2 and 5 h, plate reader fluorescence
[2] = target: alpha-fetoprotein (AFP) receptor (AFPR) (human); test: AF-647 labeled rhAFP incubated with H522 cells at 37 C for 0.5, 2 and 5 h, plate reader fluorescence
[3] = target: alpha-fetoprotein (AFP) receptor (AFPR) (human); test: AF-647 labeled rhAFP incubated with MCF7 cells at 37 C for 0.5, 2 and 5 h, plate reader fluorescence
[4] = target: alpha-fetoprotein (AFP) receptor (AFPR) (human); test: AF-647 labeled rhAFP incubated with MOLT-4 cells at 37 C for 0.5, 2 and 5 h, plate reader fluorescence
[5] = target: alpha-fetoprotein (AFP) receptor (AFPR) (human); test: AF-647 labeled rhAFP incubated with SKOV-3 cells at 37 C for 0.5, 2 and 5 h, plate reader fluorescence
[6] = target: alpha-fetoprotein (AFP) receptor (AFPR) (human); test: AF-647 labeled rhAFP incubated with COLO 205 cells at 37 C for 0.5, 2 and 5 h, plate reader fluorescence
[7] = target: alpha-fetoprotein (AFP) receptor (AFPR) (human); test: AF-647 labeled rhAFP incubated with U-937 cells at 37 C for 0.5, 2 and 5 h, plate reader fluorescence
COLO-205 cells = test: CellTiter-Glo cell viability, 72 hours; format: cell-based, human
Description: Turning to Table 5, two bioconjugates of each of AFP-ABZ982 and AFP-ABZ1827 (4 in total) were prepared at DPRs of approximately 4 (“low DPR”) and 6 (“high DPR”) for efficacy testing in vivo in the COLO-205 human tumor xenograft model. Potency in the COLO-205 cell line prior to implantation was assessed. Briefly, 96 well plates were seeded with COLO-205 cells either at 5,000 or 2,500 cells per well in a total volume to 50 μL per well. Plates were incubated overnight then treated with the bioconjugate at 37° C. for 72 hours and then a CellTiter-Glo assay was performed to measure cell viability. Samples were run in triplicate.

[8] = Maximum tolerated dose in healthy mice; format: in vivo; settings: Q1D×5 for 2 weeks, clinical observations and AST/ALT
Description: The four ABZ981-containing bioconjugates above were resynthesized and formulated in a 10 mM HEPES buffer, 5% sucrose at pH 7.5 (Table 6). Prior to testing the efficacy in tumor-bearing mice, the maximum tolerated dose (MTD) was determined for each bioconjugate in healthy mice, employing the same dosing regimen used for the efficacy study (Q1D×5 for 2 weeks) at doses of 0, 5, 10, 20 and 40 mg/kg. MTD was based on clinical observations made daily during the dosing period and elevations of liver enzymes (AST/ALT) determined at the end of treatment. […] In general, a bioconjugate with a higher DPR which carries a larger amount of toxin would be expected to have a lower MTD.

[9] = system: COLO-205 colorectal cancer xenografts; test: COLO-205 colon carcinoma xenograft efficacy, daily dosing for 2 weeks; format: in vivo, mice; settings: dosed at MTD, FIG. 2
Description: In the colon carcinoma xenograft model, 7 week old athymic male mice were implanted with 1×10^7 COLO-205 cells subcutaneously in the right flank. Mice with tumors of approximately 100 mm^3 to 200 mm^3 were randomized to receive control (vehicle) or one of the 4 bioconjugates (10 animals/group). Animals were treated daily for 2 weeks with 2 days of rest after 5 doses; tumor volume was assessed twice weekly for 60 days following implantation. FIGS. 2 and 3 reveal the valuable properties of the present bioconjugates in the COLO 205 human xenograft model of colon cancer as shown by this study.

B1: Mature [Asn233Gln]rhAFP(1-591), lacking glycosylation, produced in transgenic goats (ACT-101) (ligand)
chain: RTLHRNEYGIASILDSYQCTAEISLADLATIFFAQFVQEATYKEVSKMVKDALTAIEKPTGDEQSSGCLENQLPAFLEELCHEKEILEKYGHSDCCSQSEEGRHNCFLAHKKPTPASIPLFQVPEPVTSCEAYEEDRETFMNKFIYEIARRHPFLYAPTILLWAARYDKIIPSCCKAENAVECFQTKAATVTKELRESSLLNQHACAVMKNFGTRTFQAITVTKLSQKFTKVQFTEIQKLVLDVAHVHEHCCRGDVLDCLQDGEKIMSYICSQQDTLSNKITECCKLTTLERGQCIIHAENDEKPEGLSPNLNRFLGDRDFNQFSSGEKNIFLASFVHEYSRRHPQLAVSVILRVAKGYQELLEKCFQTENPLECQDKGEEELQKYIQESQALAKRSCGLFQKLGEYYLQNAFLVAYTKKAPQLTSSELMAITRKMAATAATCCQLSEDKLLACGEGAADIIIGHLCIRHEMTPVNPGVGQCCTSSYANRRPCFSSLVVDETYVPPAFSDDKFIFHKDLCQAQGVALQTMKQEFLINLVKQKPQITEEQLEAVIADFSGLLEKCCQGQEQEVCFAEEGQKLISKTRAALGV
modifications: fluorescent label, site not stated: Alexa Fluor-647 (Table 1), AlexaFluor488 (FIG. 1 competition), Alexa Fluor-488 or FITC (other studies)
In the case of B1, the Highest AFP binding over 5 h Period (ng/million cells) [1] is reported as 71, the Highest AFP binding over 5 h Period (ng/million cells) [2] is reported as 71.1 and the Highest AFP binding over 5 h Period (ng/million cells) [3] is reported as 126. It also gave a Highest AFP binding over 5 h Period (ng/million cells) [4] of 19, a Highest AFP binding over 5 h Period (ng/million cells) [5] of 31.3 and a Highest AFP binding over 5 h Period (ng/million cells) [6] of 75. The Highest AFP binding over 5 h Period (ng/million cells) [7] was 84.3.

B2: AFP-ABZ982 low DPR: AFP-ABZ982 bioconjugate, average DPR 3.74 (conjugate, UniProt P02771 19-609, looked up)
Alpha-fetoprotein: RTLHRNEYGIASILDSYQCTAEISLADLATIFFAQFVQEATYKEVSKMVKDALTAIEKPTGDEQSSGCLENQLPAFLEELCHEKEILEKYGHSDCCSQSEEGRHNCFLAHKKPTPASIPLFQVPEPVTSCEAYEEDRETFMNKFIYEIARRHPFLYAPTILLWAARYDKIIPSCCKAENAVECFQTKAATVTKELRESSLLNQHACAVMKNFGTRTFQAITVTKLSQKFTKVNFTEIQKLVLDVAHVHEHCCRGDVLDCLQDGEKIMSYICSQQDTLSNKITECCKLTTLERGQCIIHAENDEKPEGLSPNLNRFLGDRDFNQFSSGEKNIFLASFVHEYSRRHPQLAVSVILRVAKGYQELLEKCFQTENPLECQDKGEEELQKYIQESQALAKRSCGLFQKLGEYYLQNAFLVAYTKKAPQLTSSELMAITRKMAATAATCCQLSEDKLLACGEGAADIIIGHLCIRHEMTPVNPGVGQCCTSSYANRRPCFSSLVVDETYVPPAFSDDKFIFHKDLCQAQGVALQTMKQEFLINLVKQKPQITEEQLEAVIADFSGLLEKCCQGQEQEVCFAEEGQKLISKTRAALGV
modifications: ABZ982 toxin conjugate, DPR 3.74
For B2, the IC50 (COLO-205 cells) was 12.9 nM and the “Dose (MTD)” value [8] was 20 mg/kg.

B3: AFP-ABZ982 high DPR: AFP-ABZ982 bioconjugate, average DPR 5.81 (conjugate, UniProt P02771 19-609, looked up)
Alpha-fetoprotein: RTLHRNEYGIASILDSYQCTAEISLADLATIFFAQFVQEATYKEVSKMVKDALTAIEKPTGDEQSSGCLENQLPAFLEELCHEKEILEKYGHSDCCSQSEEGRHNCFLAHKKPTPASIPLFQVPEPVTSCEAYEEDRETFMNKFIYEIARRHPFLYAPTILLWAARYDKIIPSCCKAENAVECFQTKAATVTKELRESSLLNQHACAVMKNFGTRTFQAITVTKLSQKFTKVNFTEIQKLVLDVAHVHEHCCRGDVLDCLQDGEKIMSYICSQQDTLSNKITECCKLTTLERGQCIIHAENDEKPEGLSPNLNRFLGDRDFNQFSSGEKNIFLASFVHEYSRRHPQLAVSVILRVAKGYQELLEKCFQTENPLECQDKGEEELQKYIQESQALAKRSCGLFQKLGEYYLQNAFLVAYTKKAPQLTSSELMAITRKMAATAATCCQLSEDKLLACGEGAADIIIGHLCIRHEMTPVNPGVGQCCTSSYANRRPCFSSLVVDETYVPPAFSDDKFIFHKDLCQAQGVALQTMKQEFLINLVKQKPQITEEQLEAVIADFSGLLEKCCQGQEQEVCFAEEGQKLISKTRAALGV
modifications: ABZ982 toxin conjugate, DPR 5.81
In the case of B3, the IC50 (COLO-205 cells) is reported as 4.1 nM and the “Dose (MTD)” value [8] is reported as 10 mg/kg.

B4: AFP-ABZ1827: AFP linked via mono-methylated disulfide linker to ABZ-981, mixture of n 1-11 (conjugate)
chain: RTLHRNEYGIASILDSYQCTAEISLADLATIFFAQFVQEATYKEVSKMVKDALTAIEKPTGDEQSSGCLENQLPAFLEELCHEKEILEKYGHSDCCSQSEEGRHNCFLAHKKPTPASIPLFQVPEPVTSCEAYEEDRETFMNKFIYEIARRHPFLYAPTILLWAARYDKIIPSCCKAENAVECFQTKAATVTKELRESSLLNQHACAVMKNFGTRTFQAITVTKLSQKFTKVQFTEIQKLVLDVAHVHEHCCRGDVLDCLQDGEKIMSYICSQQDTLSNKITECCKLTTLERGQCIIHAENDEKPEGLSPNLNRFLGDRDFNQFSSGEKNIFLASFVHEYSRRHPQLAVSVILRVAKGYQELLEKCFQTENPLECQDKGEEELQKYIQESQALAKRSCGLFQKLGEYYLQNAFLVAYTKKAPQLTSSELMAITRKMAATAATCCQLSEDKLLACGEGAADIIIGHLCIRHEMTPVNPGVGQCCTSSYANRRPCFSSLVVDETYVPPAFSDDKFIFHKDLCQAQGVALQTMKQEFLINLVKQKPQITEEQLEAVIADFSGLLEKCCQGQEQEVCFAEEGQKLISKTRAALGV
modifications: non-natural residues
For B4, the “effect on the growth of the COLO-205 tumors” value [9] was “dramatic, inhibitory effect”.

B5: AFP-ABZ982: AFP linked via di-methylated disulfide linker to ABZ-981, mixture of n 1-11 (conjugate)
chain: RTLHRNEYGIASILDSYQCTAEISLADLATIFFAQFVQEATYKEVSKMVKDALTAIEKPTGDEQSSGCLENQLPAFLEELCHEKEILEKYGHSDCCSQSEEGRHNCFLAHKKPTPASIPLFQVPEPVTSCEAYEEDRETFMNKFIYEIARRHPFLYAPTILLWAARYDKIIPSCCKAENAVECFQTKAATVTKELRESSLLNQHACAVMKNFGTRTFQAITVTKLSQKFTKVQFTEIQKLVLDVAHVHEHCCRGDVLDCLQDGEKIMSYICSQQDTLSNKITECCKLTTLERGQCIIHAENDEKPEGLSPNLNRFLGDRDFNQFSSGEKNIFLASFVHEYSRRHPQLAVSVILRVAKGYQELLEKCFQTENPLECQDKGEEELQKYIQESQALAKRSCGLFQKLGEYYLQNAFLVAYTKKAPQLTSSELMAITRKMAATAATCCQLSEDKLLACGEGAADIIIGHLCIRHEMTPVNPGVGQCCTSSYANRRPCFSSLVVDETYVPPAFSDDKFIFHKDLCQAQGVALQTMKQEFLINLVKQKPQITEEQLEAVIADFSGLLEKCCQGQEQEVCFAEEGQKLISKTRAALGV
modifications: non-natural residues
With B5 the “effect on the growth of the COLO-205 tumors” value [9] was “dramatic, inhibitory effect”.

Source: US20250121075A1, “ALPHA-FETOPROTEIN BIOCONJUGATES FOR DISEASE TREATMENT” (priority 2021, published 2025)
